The record followed here is paper PMC9712074 (Cell Reports, 2022).

B1: BD55-5201 (antibody, V domains shown)
VH: QVQVVQSGAEVKKPGSSVKVSCEASGGTFSSDTIHWVRQAPGQGLEWMGRIIPIPGIVNYAQKFQGRVTITADKSTSIAYMELSSLRSEDTAVYYCASAPPRGYSGYDLLGNDPLDIWGQGTMVTVSS
VL: QSVLTQPPSVSGAPGQRVTISCTGSSSNIGAGYDVHWYQQLPGTAPKFFISVNNNRPSGVPDRFSGSKSGTSASLAITGLQAEDEAVYYCQSFDSSLSGSYVFGTGTKVTVL
B2: BD55-5163 (antibody, V domains shown)
VH: QVQLVQSGAEVKKPGASLKVSCKASGYTFTYFGVSWVRQAPGQGLEWVGWISTYHGDTNYAQKLQGRVTLTTDTSTSTVYMELRNLRSDDTAIYYCAREGGSGWGDFWGQGTLVTVSS
VL: EIVLTQSPATLSLSPGERATLSCRANQSISNYLAWYQQRPGQAPRLLIFDASNRATGIPARFTGSGSETDFTLTISSLEPEDFAVYYCQQRSNWPPAFGQGTRLDIK
B3: BD55-4662 (antibody, V domains shown)
VH: QVQLQESGPGLVKPSETLSLTCTVSGASISSYYWTWIRQPPGKGLEWIGYIYNSGSTDYSPRGSTNYSPSLESRVTISVDTSKNQFSLKLSSVTAADTAVYHCARHPWTEMATYRSAYYFDSWGQGTLVTVSS
VL: QSALTQPASVSGSPGQSITISCTGTTSDVGAYNHVSWYQQHPGKAPNLMIYDVSERPSGVSDRFSASKSGNTASLTISGLQAEDEADYYCCSYAGRSTWMFGGGTKLTVL
B4: BD55-4664 (antibody, V domains shown)
VH: QVQLQQWGAGLLRPSETLSLTCAVSGGSFSGYYWSWIRQPPGKGLEWIGEINHTGGTNYNPSLKSRVTVSIDMSRNQFSVKLNSLTAADTAVYFCAREAPDYFDSSGYRFDYWGQGALVTISS
VL: QSALTQPASVSGSPGQSITISCTGTSNDVGGYNYVSWYQQHPGKAPKLIIYDVTSRPSGISNRFSGSKSGNTASLTISGLQAEDEADYYCCSYTRSFTRVFGGGTKLTVL
B5: BD55-5183 (antibody, V domains shown)
VH: QVQLVQSGGEVKKPGSSVKVSCRASGGTFSGYTISWVRRAPGQGLEWMGGIIPMYGAANYAQKFQGRVTISAETSTGTAYMELSGLTSDDTAMYYCARDLGGEDITVAGKAPDYWGQGTLVTVSS
VL: DIQMTQSPSSLSASVGDRVTVTCRASQSISKYLNWYQERPGKAPKLLIYTASSLPSEVPSRFSGSGFGTDFTLTISGLQPEDFATYYCQQSYSLPYTFGQGTKLEIK
B6: BD55-5170 (antibody, V domains shown)
VH: QVQLVESGGGVVQPGRSLRLSCVASGFTFNTYGMHWVRQVPGKGLEWVAVISYDGSNQIYGDSVKGRFTISRDNSKNTVYLQMNGLRAEDTAVYYCATPLHDYSGYDLFDYGYAMDVWGQGTTVTVSS
VL: QSVLTQPPSASGTPGQRVTVSCSGSSSNIGSDYVYWYQQFPGTAPKLLIYRNSQRPSGVPDRFSGSKSGTSASLAISGLRSEDEADYYCAAWDGSISAWVFGGGTKLTVL
B7: BD55-5171 (antibody, V domains shown)
VH: QVQLVQSGSGLKKPGASVKVSCRTSGYSFTDHTINWVRQAPGQGLEWMGWINTATGIPTYAQGFTGRFVFSLDTSVGTAFLLISSLQAADTAVYYCARAASWDYCGNNNCFGDYWGQGTLVTVSS
VL: ENVLTQSPGTLSLSVGERVTLSCRASHSVGSSFLAWYQQKPGQAPRLLIYGASNRATGIPDRISGRGSGTDFSLTISRLEPEDFAVYYCHQYGSSPFTFGQGTKVEIK
B8: BD55-5182 (antibody, V domains shown)
VH: EVQLVESGGGLVKPGGSLRLSCAASGFTLSNAWMTWVRQAPGKGLEWIARIKGKVDGATRDYAAPVKGRFTISTDDSKTTLFLQMNTLKTEDTAVYFCTALFTSYDMLTGRAGGRGYWGQGTLVTVSS
VL: NVMLTQPHSVSESPGKTVTISCTRSSGSIASNYVQWYQQRPGSAPTTVIYEDNQRPSGVPDRFSGSIDSSSNSASLTISGLETEDEADYYCQSFDSSNHMNWVFGGGTKLTVL
B9: BD55-4495 (antibody, V domains shown)
VH: QGHLVQSGAEVKEPGASVTLSCKASGYTFTNHFMHWVRQAPGQGLEWMARINPSGDSTNLAQKFQGRVSVTRDSSTSTVYMYLSRLRVEDTAVYYCARDRFPSPGNFVWGSPLGGMDVWGQGTTVTVSS
VL: SYDLAQPPSVSVSPGQTATITCSGAALPNQYAYWYQQKSGQAPVLLLYKDSERPSGIPERFSGSNSGTTVTLTISGVQAEDEAVYYCQSADSSTSYHVFGAGTKVTVL
B10: BD55-5168 (antibody, V domains shown)
VH: QVQLVQSGSEVKKPGSSVKVSCKASGGSFRSHAISWVRQAPGQGLEWMGCVIPTFDTANYAQNFRGRVTLTADESTSTAYMELTSLTSDDTAVYYCARLFPNGTPDSPTGPLDYWGQGTLVTVSS
VL: DIQMTQSPSSLSASVGDRVTITCQASQGIGNYLNWYQQKPGKAPKLLIYGASNLHTGVPSRFSGRGSGTHFTFTINSLQPEDVATYYCQQYDYVPMYTFGQGTKLEIK
B11: BD55-5200 (antibody, V domains shown)
VH: QVQLQESDPGLVKPSQTLSLTCTVSGGSISGGSNFWNWIRQPAGKGLEWIGRIYTSGNTDYNPSLKSRVTISVDTSKNQFSLRLSSVTAADTAVYYCARDRLSGKVEVAINHFSYGLDVWGPGTTVTVSS
VL: SHELTQPPSVSVSPGQTARITCSGDALPKQYAYWYQQKSGQAPVLVIYKDSERPSGIPERFSGSSSGRTVTLTISGVQAEDEADYYCQSADSSNIYLAFGGGTKVTVL
B12: BD55-5198 (antibody, V domains shown)
VH: EVQLVESGGGVVKPGGSLRLSCAASGFTFSAFAMHWVRQVPGKGLEYISLISEDGYSTFYAASVTGRFTLSRDNNKKSLYLQMNSLRSEDTAFYYCAKDIGGTVAGTGADFWGQGILVTVSS
VL: QSVLTQPPSVSGAPGQKVTISCTGDSSNIGAGYTVHWYQQLPGTAPKLLIYGDNNRPSGVPDRFSGSKSGTSASLAITGLQAEDEADYYCQSYDTSLSGLWVFGGGTRLTVL
B13: BD55-4760 (antibody, V domains shown)
VH: EVQLVEAGGDLVQPGRSLRLSCAASGFNFDDCAMHWVRQAPGKGLEWVSGINWSSGDIDYADSVKGRFTISRDNAKNSLYLQMNSLRPEDTAFYYCAKDPWGELSSIDFWGQGTLVTVSS
VL: QLVLTQSPSASASLGASVKLTCTLSRGHSSYAIAWHQQQPEKGPRYLMRVNSDGSHIKGDGIPDRFSGSSSGAERYLTISSLQSEDEADYYCQTWSIGIRVFGGGTKLTVL
B14: BD55-4892 (antibody, V domains shown)
VH: QVQLVESGGGVVQPGGSLRLSCAASGFTFSTYGMHWVRQAPGKGLEWVAVISYDGNNKYHADSVKGRFTISRDNSKNTLYLEMKSLRAEDTAVYYCAKEVNYGSGSFENEGRLDYWGQGTLVTVSS
VL: DIQMTQSPSSLSASVGDRVTITCRTSQSINRYLNWYQQKPGKAPKLLIYATSTLQSGVPSRFSGSGSGTDFILTISNLQPEDFAAYYCQQTYSIPWTFGQGTKVEIK
B15: BD55-5001 (antibody, V domains shown)
VH: QVQLVQSGSELKKPGASVKVSCKTSGYTFSTYAINWVRQAPGQGLEWMGWINTDTGIPTYAQGFTGRFVLSLDTSVGTAYLQISSLKAEDTAVYYCARADSGSYSWWFDPWGQGTLVTVSS
VL: VIWMTQSPSSLSASIGDRVTISCRLSYGISSELVWYKQKPGKAPELLIYAASILQSGVPSRFSGTGSGTDFTLTISGLQSEDFATYYCQQYYSFPLTFGQGTKVEIK
B16: BD55-5195 (antibody, V domains shown)
VH: QLQLQESGPRLVKPSETLSLTCSVSGGSIRSNSDYWAWIRQSPGQGLEWIGSISHSGSTYYNPSLKSRVSIFVDTSSNQFSLNLTSVTAADTAVYHCARHPSSGWLILWFDPWGQGTLVTVSS
VL: EIVLTQSPGTLSLSPGERATLSCRASQSISSNFLAWYQQKPGQAPRLLIYGASNRATDIPDRFSGSGSGTDFTLTVRRLEPEDFAVYYCHQYDTSPQTFGQGTKVEIK
B17: BD55-5175 (antibody, V domains shown)
VH: QVQLVQSGPELKRPGASVKVSCETSGYTFTDYAINWVRQAPGQGLEWMGWINTNTGHPTYAQGFTGRFVFSVDMSDSTAYLQISSLKPADTAVYYCARDFQVPEGLDYWGQGTLVTVSS
VL: DIVMTQSPATLSLSPGETATLSCRASYSFTSRLAWYQQKPGQAPRLLIHDASNRAPGVPARFSGSGSGTEFTLAISGLQSEDSAVYYCQQYHSWPLTFGQGTKVEIK
B18: BD55-5189 (antibody, V domains shown)
VH: QVQLVQSGAEVKKPGASVKVSCKASGYSFTTFYIHWLRQAPGQGLEWMGIVNVAGDTTDYAQNFQGRVTMTRDTSTGTVYMELSSLRSEDTAIYYCASPREKGYSGYDFWETTFDIWGQGTMVTVS
VL: EVVMTQSPATLSVSPGERATLSCRASQSISSNLAWYQQKPGQAPRLLIYGASTRATGIPARFSGSGSGSQFTLTISSLQSEDFVVYYCQQYNNWPPIFGQGTKLEIK
B19: BD55-5196 (antibody, V domains shown)
VH: QVHLVQSGAEVRKPGASVKVSCKASGYTFTSYFMYWVRQAPGHGLEWMGMIDPISGSTNYAQRFQGRVTMTRDTSTSTVNMELTSLRSEDTAVYYCARDGGIRFGDLSPDNWFDPWGRGTLVTVSS
VL: QSVLTQPPSVSGAPGQRVTISCTGSSSNLGAGYDVHWYQQLPGTAPKLLIYGNNNRPSGVPDRFSGSRSGTSASLAITGLLAEDEADYYCQSYDSSSLSGSKVFGTGTTVTVL
B20: BD55-5167 (antibody, V domains shown)
VH: QITLKESGPTLVKPTQTLTLTCTFSGFSLTTTGMGVGWIRQPPGKAPEWLALIYWLDDTRYSPSLESRLTLTKDTSKNLVVLTMTNMDPVDTATYYCAHLYYDSSSGYDTTGPDAFDFWGQGTMVTVSP
VL: AIQITQSPSSLSASPGDRVTITCRASQGISSFLAWYQQRRGRAPKLLIHSASTLQNGVPSRISGSGSGTDFTLTITGLQSEDFATYYCQQYYSYPPTFGHGTKVEF
B21: BD55-5164 (antibody, V domains shown)
VH: QLQLQESGPGLVKPSETLSLTCIVSRGSISSSSYFWAWVRQAPGKGLEWIGTIDYTGNTHYNTSLKSRVTISVDTSKNQFSLRLRSVTAADTALYFCSRQSAPPWGSSWGDYWGRGTLVTVSS
VL: DIQMTQSPSSLSASVGDRVTISCQASQDISNYLNWYHQTPGKAPILLIFDASNLEAGVPSRFSGSGSGRHFSFTISSLQPEDTGTYYCQQYANLPALTFGGGTKVDIK

The target of the test is SARS-CoV-2 (WT) Spike RBD Protein (His Tag) (SARS-CoV-2 ancestral (Wuhan-Hu-1), UniProt P0DTC2).
For B1, the binding result was “binds”.

For B2, the binding result is on record as “binds”.

Regarding B3, the binding result is reported as “binds”.

In the case of B4, the binding result is “binds”.

Turning to B5, the binding result is listed as “binds”.

With B6, the binding result is given as “binds”.

As for B7, the binding result is reported as “binds”.

On to B8, for which the binding result was “binds”.

B9: the binding result was “binds”.

With B10, the binding result was “binds”.

For the molecule B11, the binding result was “binds”.

In the case of B12, the binding result is given as “binds”.

For the molecule B13, the binding result is “binds”.

Turning to B14, the binding result is given as “binds”.

For B15, the binding result is given as “binds”.

For B16, the binding result is given as “binds”.

Regarding B17, the binding result was “binds”.

On to B18, for which the binding result is recorded as “binds”.

For B19, the binding result is “binds”.

For B20, the binding result is “binds”.

Regarding B21, the binding result is reported as “binds”.
